The text below walks through data of US20220204580A1 (AstraZeneca / MedImmune, published 2022).

Numbered stars: 1 amine (or outer) side, 2 acyl side, 3 side chain; on linkers, the order of the positions; unused ones are H or OH. Bridge positions count the residues as written; N and C are the ends. Square brackets hold non-standard residues; d marks the D form. Side chains are listed from the residue outwards. Ends that are not written are not given here. * marks the point of attachment. C20 diacid = O=C(O)CCCCCCCCCCCCCCCCCCC(=O)*; C18 diacid = O=C(O)CCCCCCCCCCCCCCCCC(=O)*; γGlu = O=C(O)[C@H](CCC(=O)[*:2])N[*:1]; Hyp = O=C(O)[C@@H]1C[C@@H](O)CN1; αMeF = C[C@](N)(Cc1ccccc1)C(=O)O; Dab = NCC[C@H](N)C(=O)O; Aib = CC(C)(N)C(=O)O

The labels stand for the following.
T1: human amylin receptor (calcitonin receptor co-expressed with receptor activity modifying protein, RAMP3) (human, UniProt P30988 25-474; O60896 24-148)
T1 sequence (looked up) 1: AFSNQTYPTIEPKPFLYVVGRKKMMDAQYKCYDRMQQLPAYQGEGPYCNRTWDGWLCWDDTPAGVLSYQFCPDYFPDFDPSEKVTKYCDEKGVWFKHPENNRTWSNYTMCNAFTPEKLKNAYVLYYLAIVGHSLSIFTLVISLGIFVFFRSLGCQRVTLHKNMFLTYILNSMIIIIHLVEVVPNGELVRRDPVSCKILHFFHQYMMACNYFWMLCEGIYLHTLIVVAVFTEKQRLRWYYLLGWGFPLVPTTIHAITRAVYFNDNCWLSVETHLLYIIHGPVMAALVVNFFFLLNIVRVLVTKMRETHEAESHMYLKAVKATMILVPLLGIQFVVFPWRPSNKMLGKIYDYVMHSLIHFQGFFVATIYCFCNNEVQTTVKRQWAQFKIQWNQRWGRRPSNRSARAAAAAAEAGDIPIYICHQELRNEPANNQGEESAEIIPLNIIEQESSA
T1 sequence (looked up) 2: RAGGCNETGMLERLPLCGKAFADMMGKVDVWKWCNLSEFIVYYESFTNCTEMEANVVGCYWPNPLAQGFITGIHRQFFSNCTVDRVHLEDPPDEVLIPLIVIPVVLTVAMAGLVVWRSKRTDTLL

T2: human calcitonin receptor (human, UniProt P30988 25-474)
T2 sequence (looked up): T1 sequence (looked up) 1

B1: Peptide 120 (SEQ ID NO: 120) (peptide)
peptide: K([γGlu-γGlu-C20 diacid])CNAATCATQRLANWLVHSSPNFPAILSPTNVGSNTY-NH2
modifications: disulfide 2-7; N-terminus assumed
SMILES: CC[C@H](C)[C@H](NC(=O)[C@H](C)NC(=O)[C@@H]1CCCN1C(=O)[C@H](Cc1ccccc1)NC(=O)[C@H](CC(N)=O)NC(=O)[C@@H]1CCCN1C(=O)[C@H](CO)NC(=O)[C@H](CO)NC(=O)[C@H](Cc1c[nH]cn1)NC(=O)[C@@H](NC(=O)[C@H](CC(C)C)NC(=O)[C@H](Cc1c[nH]c2ccccc12)NC(=O)[C@H](CC(N)=O)NC(=O)[C@H](C)NC(=O)[C@H](CC(C)C)NC(=O)[C@H](CCCNC(=N)N)NC(=O)[C@H](CCC(N)=O)NC(=O)[C@@H](NC(=O)[C@H](C)NC(=O)[C@@H]1CSSC[C@H](NC(=O)[C@@H](N)CCCCNC(=O)CC[C@H](NC(=O)CC[C@H](NC(=O)CCCCCCCCCCCCCCCCCCC(=O)O)C(=O)O)C(=O)O)C(=O)N[C@@H](CC(N)=O)C(=O)N[C@@H](C)C(=O)N[C@@H](C)C(=O)N[C@@H]([C@@H](C)O)C(=O)N1)[C@@H](C)O)C(C)C)C(=O)N[C@@H](CC(C)C)C(=O)N[C@@H](CO)C(=O)N1CCC[C@H]1C(=O)N[C@H](C(=O)N[C@@H](CC(N)=O)C(=O)N[C@H](C(=O)NCC(=O)N[C@@H](CO)C(=O)N[C@@H](CC(N)=O)C(=O)N[C@H](C(=O)N[C@@H](Cc1ccc(O)cc1)C(N)=O)[C@@H](C)O)C(C)C)[C@@H](C)O
B2: Peptide 122 (SEQ ID NO: 122) (peptide)
peptide: K([γGlu-γGlu-C18 diacid])CNTATCATQRLANFLVHSS[Aib]NFPAILSPT[Dab]VGSNTY-NH2
modifications: disulfide 2-7; N-terminus assumed
SMILES: CC[C@H](C)[C@H](NC(=O)[C@H](C)NC(=O)[C@@H]1CCCN1C(=O)[C@H](Cc1ccccc1)NC(=O)[C@H](CC(N)=O)NC(=O)C(C)(C)NC(=O)[C@H](CO)NC(=O)[C@H](CO)NC(=O)[C@H](Cc1c[nH]cn1)NC(=O)[C@@H](NC(=O)[C@H](CC(C)C)NC(=O)[C@H](Cc1ccccc1)NC(=O)[C@H](CC(N)=O)NC(=O)[C@H](C)NC(=O)[C@H](CC(C)C)NC(=O)[C@H](CCCNC(=N)N)NC(=O)[C@H](CCC(N)=O)NC(=O)[C@@H](NC(=O)[C@H](C)NC(=O)[C@@H]1CSSC[C@H](NC(=O)[C@@H](N)CCCCNC(=O)CC[C@H](NC(=O)CC[C@H](NC(=O)CCCCCCCCCCCCCCCCC(=O)O)C(=O)O)C(=O)O)C(=O)N[C@@H](CC(N)=O)C(=O)N[C@@H]([C@@H](C)O)C(=O)N[C@@H](C)C(=O)N[C@@H]([C@@H](C)O)C(=O)N1)[C@@H](C)O)C(C)C)C(=O)N[C@@H](CC(C)C)C(=O)N[C@@H](CO)C(=O)N1CCC[C@H]1C(=O)N[C@H](C(=O)N[C@@H](CCN)C(=O)N[C@H](C(=O)NCC(=O)N[C@@H](CO)C(=O)N[C@@H](CC(N)=O)C(=O)N[C@H](C(=O)N[C@@H](Cc1ccc(O)cc1)C(N)=O)[C@@H](C)O)C(C)C)[C@@H](C)O
B3: Peptide 121 (SEQ ID NO: 121) (peptide)
peptide: K([γGlu-γGlu-C20 diacid])CNTATCATQRLANFLVHSS[Aib]NF[Hyp]AILSPTNVGSNTY-NH2
modifications: disulfide 2-7; not fully specified; printed as K(γE-γE-C20diacid)[CNTATC]ATQRLANFLVHSS(Aib)NF(Hyp)AILSPTNVGSNTY-amide
B4: Peptide 119 (SEQ ID NO: 119) (peptide)
peptide: K([γGlu-γGlu-C20 diacid])CNTATCATQRLANFLVHSPPNFPAILSPTNVGSNTY-NH2
modifications: disulfide 2-7; N-terminus assumed
SMILES: CC[C@H](C)[C@H](NC(=O)[C@H](C)NC(=O)[C@@H]1CCCN1C(=O)[C@H](Cc1ccccc1)NC(=O)[C@H](CC(N)=O)NC(=O)[C@@H]1CCCN1C(=O)[C@@H]1CCCN1C(=O)[C@H](CO)NC(=O)[C@H](Cc1c[nH]cn1)NC(=O)[C@@H](NC(=O)[C@H](CC(C)C)NC(=O)[C@H](Cc1ccccc1)NC(=O)[C@H](CC(N)=O)NC(=O)[C@H](C)NC(=O)[C@H](CC(C)C)NC(=O)[C@H](CCCNC(=N)N)NC(=O)[C@H](CCC(N)=O)NC(=O)[C@@H](NC(=O)[C@H](C)NC(=O)[C@@H]1CSSC[C@H](NC(=O)[C@@H](N)CCCCNC(=O)CC[C@H](NC(=O)CC[C@H](NC(=O)CCCCCCCCCCCCCCCCCCC(=O)O)C(=O)O)C(=O)O)C(=O)N[C@@H](CC(N)=O)C(=O)N[C@@H]([C@@H](C)O)C(=O)N[C@@H](C)C(=O)N[C@@H]([C@@H](C)O)C(=O)N1)[C@@H](C)O)C(C)C)C(=O)N[C@@H](CC(C)C)C(=O)N[C@@H](CO)C(=O)N1CCC[C@H]1C(=O)N[C@H](C(=O)N[C@@H](CC(N)=O)C(=O)N[C@H](C(=O)NCC(=O)N[C@@H](CO)C(=O)N[C@@H](CC(N)=O)C(=O)N[C@H](C(=O)N[C@@H](Cc1ccc(O)cc1)C(N)=O)[C@@H](C)O)C(C)C)[C@@H](C)O
B5: Peptide 118 (SEQ ID NO: 118) (peptide)
peptide: K([γGlu-γGlu-C20 diacid])CNIATCATQRLANFLVHSIANFGPILPPTNVGSRTY-NH2
modifications: disulfide 2-7; N-terminus assumed
SMILES: CC[C@H](C)[C@H](NC(=O)[C@H](CO)NC(=O)[C@H](Cc1c[nH]cn1)NC(=O)[C@@H](NC(=O)[C@H](CC(C)C)NC(=O)[C@H](Cc1ccccc1)NC(=O)[C@H](CC(N)=O)NC(=O)[C@H](C)NC(=O)[C@H](CC(C)C)NC(=O)[C@H](CCCNC(=N)N)NC(=O)[C@H](CCC(N)=O)NC(=O)[C@@H](NC(=O)[C@H](C)NC(=O)[C@@H]1CSSC[C@H](NC(=O)[C@@H](N)CCCCNC(=O)CC[C@H](NC(=O)CC[C@H](NC(=O)CCCCCCCCCCCCCCCCCCC(=O)O)C(=O)O)C(=O)O)C(=O)N[C@@H](CC(N)=O)C(=O)N[C@@H]([C@@H](C)CC)C(=O)N[C@@H](C)C(=O)N[C@@H]([C@@H](C)O)C(=O)N1)[C@@H](C)O)C(C)C)C(=O)N[C@@H](C)C(=O)N[C@@H](CC(N)=O)C(=O)N[C@@H](Cc1ccccc1)C(=O)NCC(=O)N1CCC[C@H]1C(=O)N[C@H](C(=O)N[C@@H](CC(C)C)C(=O)N1CCC[C@H]1C(=O)N1CCC[C@H]1C(=O)N[C@H](C(=O)N[C@@H](CC(N)=O)C(=O)N[C@H](C(=O)NCC(=O)N[C@@H](CO)C(=O)N[C@@H](CCCNC(=N)N)C(=O)N[C@H](C(=O)N[C@@H](Cc1ccc(O)cc1)C(N)=O)[C@@H](C)O)C(C)C)[C@@H](C)O)[C@@H](C)CC
B6: Peptide 117 (SEQ ID NO: 117) (peptide)
peptide: K([γGlu-γGlu-C20 diacid])CNTATCATQRLANFLVHSS[Aib]NFPAILSPTNVGSNTY-NH2
modifications: disulfide 2-7; N-terminus assumed
SMILES: CC[C@H](C)[C@H](NC(=O)[C@H](C)NC(=O)[C@@H]1CCCN1C(=O)[C@H](Cc1ccccc1)NC(=O)[C@H](CC(N)=O)NC(=O)C(C)(C)NC(=O)[C@H](CO)NC(=O)[C@H](CO)NC(=O)[C@H](Cc1c[nH]cn1)NC(=O)[C@@H](NC(=O)[C@H](CC(C)C)NC(=O)[C@H](Cc1ccccc1)NC(=O)[C@H](CC(N)=O)NC(=O)[C@H](C)NC(=O)[C@H](CC(C)C)NC(=O)[C@H](CCCNC(=N)N)NC(=O)[C@H](CCC(N)=O)NC(=O)[C@@H](NC(=O)[C@H](C)NC(=O)[C@@H]1CSSC[C@H](NC(=O)[C@@H](N)CCCCNC(=O)CC[C@H](NC(=O)CC[C@H](NC(=O)CCCCCCCCCCCCCCCCCCC(=O)O)C(=O)O)C(=O)O)C(=O)N[C@@H](CC(N)=O)C(=O)N[C@@H]([C@@H](C)O)C(=O)N[C@@H](C)C(=O)N[C@@H]([C@@H](C)O)C(=O)N1)[C@@H](C)O)C(C)C)C(=O)N[C@@H](CC(C)C)C(=O)N[C@@H](CO)C(=O)N1CCC[C@H]1C(=O)N[C@H](C(=O)N[C@@H](CC(N)=O)C(=O)N[C@H](C(=O)NCC(=O)N[C@@H](CO)C(=O)N[C@@H](CC(N)=O)C(=O)N[C@H](C(=O)N[C@@H](Cc1ccc(O)cc1)C(N)=O)[C@@H](C)O)C(C)C)[C@@H](C)O

One experiment deals with T1, human amylin receptor (calcitonin …). In words: cell-based or functional assay.
As for B1, the “EC50 (cAMP production)” value is 1.77 nM and the “Ratio (EC50 hCTR / EC50 hAMYR3)” value is 6.
Consider B2, for which the “EC50 (cAMP production)” value came out at 0.655 nM and the “Ratio (EC50 hCTR / EC50 hAMYR3)” value came to 9.
Regarding B3, the “EC50 (cAMP production)” value stood at 1.33 nM and the “Ratio (EC50 hCTR / EC50 hAMYR3)” value turned out to be 5.
For the molecule B4, the “EC50 (cAMP production)” value came out at 1.46 nM and the “Ratio (EC50 hCTR / EC50 hAMYR3)” value came to 24.
On the same counts, the results for K([γGlu-γGlu-C18 diacid])CNTATCATQRLANFLVHSSNN[αMeF]GPILPPTNVGSNTY-NH2 (disulfide 2-7) [Peptide 13 (SEQ ID NO: 13)] are 0.196 nM and 10.
For B5 the same measures were 0.417 nM and 2.
For B6 the same measures were 0.77 nM and 4.

The target of a further experiment is T2, human calcitonin receptor. The experiment can be described thus: cell-based or functional assay.
In the case of B1, the “EC50 (cAMP production)” value amounted to 10.7 nM.
On the same count and under the same terms, the value for B2 was 6.18 nM; that for B3 was 6.07 nM; that for B4 was 34.7 nM.
For K([γGlu-γGlu-C18 diacid])CNTATCATQRLANFLVHSSNN[αMeF]GPILPPTNVGSNTY-NH2 (disulfide 2-7) [Peptide 13 (SEQ ID NO: 13)], the “EC50 (cAMP production)” value was found to be 2.04 nM.
The same measure, in the same setting: the same measure for B5: 0.792 nM; for B6: 3.19 nM.
